Measurements reported in paper PMC5909843 (Immunity, 2018).

Target: EBV gH/gL heterodimer, recombinant ectodomain (Epstein-Barr virus, UniProt P03231;P03212)
Test: BLI

Binder	binding result
E1D1, murine anti-gH/gL monoclonal antibody (antibody, V domains shown) VH: EVQLEQSGPELVKPGASVKMSCKASGYTFTDYVISWVKQRTGQGLEWIGEIYPESGNTYYNEKFKGEATLTADKSSNTAYMQLSRLTSEDSAVYFCAEGYAMDFWGQGTSVTVSS VL: DIVITQTPLSLPVSLGDQASISCRSSQSLLHSNGNTYLHWYLQRPGQSPKLLIYKVSNRFSGVPDRFSGSGSGTDFTLMINRVEAEDLGVYFCSQSIHVPRTFGGGTKLEIK	binds
AMMO1 with the first residue of the heavy chain substituted by an asparagine (antibody, V domains shown) VH: NVQLVQSGADVKKPGASVKVSCKASGYTFIHFGISWVRQAPGQGLEWMGWIDTNNGNTNYAQSLQGRVTMTTDTSTGTAYMELRSLSTDDTAVYFCARALEMGHRSGFPFDYWGQGVLVTVSP VL: SYELTQPPSVSVAPGQRATITCGGHNIGAKNVHWYQQKPGQAPVLVIQYDSDRPSGIPERFSGSNSGSTATLTISRVEAGDEADYYCQVWDSGRGHPLYVFGGGTKVTVL	binds
